The values below come from IntAct's records for PubMed 16443932.

For the test, the target named is cdc42_human CDC42 (UniProt P60953).
Chain of UniProt P60953 (P60953 whole entry, looked up): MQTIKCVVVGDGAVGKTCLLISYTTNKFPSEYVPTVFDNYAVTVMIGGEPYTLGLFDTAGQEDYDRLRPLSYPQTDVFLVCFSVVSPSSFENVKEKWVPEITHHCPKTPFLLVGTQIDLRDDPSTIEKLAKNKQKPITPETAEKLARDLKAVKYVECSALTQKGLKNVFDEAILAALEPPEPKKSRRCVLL

For the substance “Phospholipid-transporting ATPase ABCA1 (Homo sapiens), O95477 K939M”, the “effect of a mutation on the interaction” value is “disrupting interaction strength”.
